For this assay, the target named is T1, human RAD51 protein (human, UniProt Q06609-1 1-339).
T1 construct: RAD51 recombinase, human, NP_002866, bought from Creative Biomart; This is the RAD51 of the ELISA; source: bought: Creative Biomart
T1 sequence (looked up): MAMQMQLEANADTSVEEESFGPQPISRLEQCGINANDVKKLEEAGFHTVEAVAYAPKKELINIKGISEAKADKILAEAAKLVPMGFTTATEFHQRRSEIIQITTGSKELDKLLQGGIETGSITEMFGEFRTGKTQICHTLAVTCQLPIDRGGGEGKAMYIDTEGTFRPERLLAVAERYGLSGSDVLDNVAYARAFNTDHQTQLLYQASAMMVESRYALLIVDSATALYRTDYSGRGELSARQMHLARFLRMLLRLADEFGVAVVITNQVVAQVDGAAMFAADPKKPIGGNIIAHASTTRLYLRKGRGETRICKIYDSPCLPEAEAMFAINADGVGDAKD
As to the kind of experiment: ELISA; competitive ELISA; BRC4-biotinylated peptide coated on 384-well plates, blocked with 1% BSA/PBS-T, overnight hybridisation with human RAD51; small-molecule compounds added 0.01-100 uM at constant 1% DMSO; detection with anti-RAD51 and HRP-secondary antibodies. The note with it: both partners purified. On the technique in general: An ELISA detects its analyte on a solid surface through an enzyme-linked reagent.

B1: BRC4-biotinylated peptide (peptide)
peptide: KEPTLLGFHTASGKKVKIAKESLDKVKNLFDEKEQ
modifications: biotin on the N-terminus
notes: BRC4 repeat of BRCA2; holds the FxxA motif (BRCA2 residues 1524-1527) and the LFDE motif (BRCA2 residues 1545-1548) as numbered in the introduction; also called biotinylated BRC4 peptide; BRC4 peptide; source: bought: Life Technologies
On to B1, for which the binding result is on record as “binds”.
